The values below come from paper PMC4837482, “The complex binding mode of the peptide hormone H2 relaxin to its receptor RXFP1” (Nature Communications, 2016).

Where a chain is given by its changes, count along the chain named.

What all share (experiment): cAMP activity assay (pCRE β-galactosidase reporter), transfected HEK293T cells
Type in all cases: cell-based

One assay has as its target T1, RXFP1 W46A (Homo sapiens, UniProt Q9HBX9, W68A).
T1 construct: transiently transfected human embryonic kidney (HEK) 293T cells expressing full-length RXFP1 and mutants; expressed in transfected cells; host or cells: HEK293T
T1 sequence (Q9HBX9 23-757 W68A limits assumed): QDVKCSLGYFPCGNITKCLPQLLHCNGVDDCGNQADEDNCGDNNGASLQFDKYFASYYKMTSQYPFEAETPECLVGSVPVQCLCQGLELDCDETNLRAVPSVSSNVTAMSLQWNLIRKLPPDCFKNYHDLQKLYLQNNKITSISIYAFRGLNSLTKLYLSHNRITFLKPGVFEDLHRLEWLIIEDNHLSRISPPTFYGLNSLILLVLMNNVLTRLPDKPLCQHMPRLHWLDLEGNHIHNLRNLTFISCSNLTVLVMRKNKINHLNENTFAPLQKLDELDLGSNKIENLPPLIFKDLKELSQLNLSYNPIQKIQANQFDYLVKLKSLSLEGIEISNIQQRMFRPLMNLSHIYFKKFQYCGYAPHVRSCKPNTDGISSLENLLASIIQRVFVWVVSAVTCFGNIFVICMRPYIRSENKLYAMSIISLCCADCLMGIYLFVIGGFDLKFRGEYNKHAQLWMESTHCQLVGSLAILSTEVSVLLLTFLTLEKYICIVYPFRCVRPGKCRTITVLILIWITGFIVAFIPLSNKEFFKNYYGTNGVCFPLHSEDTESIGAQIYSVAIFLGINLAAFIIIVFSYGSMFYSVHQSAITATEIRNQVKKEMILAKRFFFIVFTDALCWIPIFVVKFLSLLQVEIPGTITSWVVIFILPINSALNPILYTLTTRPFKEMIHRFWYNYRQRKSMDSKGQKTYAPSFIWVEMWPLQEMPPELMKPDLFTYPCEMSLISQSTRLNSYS
Particulars: construct W46A, ±s.e.m. The gist of the method:
(§1)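 Receptor signalling is measured as CRE-driven β-galactosidase activity after H2 relaxin exposure, using a colorimetric substrate read at 570 nm. Values are normalised to 5 μM Forskolin, pooled from at least three independent triplicate experiments.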

The next assay addresses T2, RXFP1 N44A (Homo sapiens, UniProt Q9HBX9, N66A).
T2 construct: transiently transfected human embryonic kidney (HEK) 293T cells expressing full-length RXFP1 and mutants; expressed in transfected cells; host or cells: HEK293T
T2 sequence (Q9HBX9 23-757 N66A limits assumed): T1 sequence (Q9HBX9 23-757 W68A limits assumed) with N44A, A46W
The conditions noted are these: construct N44A, ±s.e.m. The method, boiled down:
as §1

The next assay deals with T3, RXFP1 D51A (Homo sapiens, UniProt Q9HBX9, D51A/D73A).
T3 construct: cells expressing full-length RXFP1 and mutants; expressed in transfected cells; host or cells: HEK293T
T3 sequence (Q9HBX9 23-757 D51A/D73A limits assumed): T1 sequence (Q9HBX9 23-757 W68A limits assumed) with D29A, A46W, D51A
Particulars: construct D51A, ±s.e.m. The gist of the method:
as §1

[1] abbreviates: percentage of maximum response to 5 μM Forskolin.

In the case of “H2 relaxin: two-chain 6-kDa peptide hormone structurally related to insulin; recombinant human gene-2 H2 relaxin provided by Corthera”, the “H2 relaxin pEC50” value in the assay with RXFP1 W46A (cAMP reporter) is recorded as 7.02±0.18 (3); with RXFP1 N44A (cAMP reporter), 11.0±0.1 (4); with RXFP1 D51A (cAMP reporter) it was 11.01±0.56 (3). In addition, the “H2 relaxin Emax” value in the assay with RXFP1 W46A (setting [1]) is 109.6±13.69 (3) %; with RXFP1 N44A (setting [1]), 92.16±6.98 (4) %; with RXFP1 D51A (setting [1]) it was 96.5±4.0 (3) %.
